Data on 8 molecules can be found in patent US20190336574A1 (TRUSTEES OF PRINCETON UNIVERSITY, published 2019).

The target in test [1] is T1, His6-SND1ΔC (SND1 residues 1-339) (human, UniProt Q7KZF4 1-339).
T1 construct: not shown: N-terminal His tag (His6, His8 or His) with TEV site, pQlink vector
T1 sequence: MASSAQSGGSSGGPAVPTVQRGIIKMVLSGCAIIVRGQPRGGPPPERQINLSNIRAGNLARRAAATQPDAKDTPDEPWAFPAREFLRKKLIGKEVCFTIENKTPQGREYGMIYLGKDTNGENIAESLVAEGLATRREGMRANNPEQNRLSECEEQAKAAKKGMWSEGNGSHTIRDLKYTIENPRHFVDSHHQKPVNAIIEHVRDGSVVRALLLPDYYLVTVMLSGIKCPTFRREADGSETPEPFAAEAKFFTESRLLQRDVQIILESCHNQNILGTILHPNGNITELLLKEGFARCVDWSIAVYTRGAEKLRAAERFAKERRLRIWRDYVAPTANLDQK
The test is described as follows: GST pull-down of His6-SND1ΔC, SDS-PAGE, Coomassie. The text has this:
FIGS. 7A-E represents determination of key regions and residues mediating the MTDH-SND1 interaction. (FIG. 7A) Schematics of MTDH fragments and mutants with indicated SND1-binding capability. + indicates binding and − indicates no binding based on results shown below. Two putative nuclear localization signals are residues 432-451 for NLS2 and residues 561-580 for NLS3. […] (FIG. 7B) Pulldown of His6-SND1ΔC by GST-tagged MTDH fragments with indicated boundaries. The bound proteins were examined by SDS-PAGE and visualized by Coomassie blue staining. […] For (FIG. 7B) and (FIG. 7C), 1/10 of the His6-SND1ΔC input was shown, and GST alone was used as a negative control. Representative results of 3 independent experiments are shown. (FIG. 7D, FIG. 7E) Lysates from HEK293T cells expressing the indicated ectopic human SND1, AGO2 or MTDH were immunoprecipitated with anti-Myc and immunoblotted with the indicated antibodies.
TPM1 comprises mutations D389R, D393R and W394D. TPM2 comprises mutations E399R, E400R and W401D. TPM3 comprises mutations W404D, D406R and E407R. […] The mutations are also set out in Table 3.

For another test, the target named is T2, murine SND1, wild type (mouse, UniProt Q78PY7 1-910).
T2 construct: Endogenous protein of murine PyMT mammary tumor cells; also called SND1 (in PyMT tumor cells); WT shRNA-resistant murine SND1
T2 sequence (looked up): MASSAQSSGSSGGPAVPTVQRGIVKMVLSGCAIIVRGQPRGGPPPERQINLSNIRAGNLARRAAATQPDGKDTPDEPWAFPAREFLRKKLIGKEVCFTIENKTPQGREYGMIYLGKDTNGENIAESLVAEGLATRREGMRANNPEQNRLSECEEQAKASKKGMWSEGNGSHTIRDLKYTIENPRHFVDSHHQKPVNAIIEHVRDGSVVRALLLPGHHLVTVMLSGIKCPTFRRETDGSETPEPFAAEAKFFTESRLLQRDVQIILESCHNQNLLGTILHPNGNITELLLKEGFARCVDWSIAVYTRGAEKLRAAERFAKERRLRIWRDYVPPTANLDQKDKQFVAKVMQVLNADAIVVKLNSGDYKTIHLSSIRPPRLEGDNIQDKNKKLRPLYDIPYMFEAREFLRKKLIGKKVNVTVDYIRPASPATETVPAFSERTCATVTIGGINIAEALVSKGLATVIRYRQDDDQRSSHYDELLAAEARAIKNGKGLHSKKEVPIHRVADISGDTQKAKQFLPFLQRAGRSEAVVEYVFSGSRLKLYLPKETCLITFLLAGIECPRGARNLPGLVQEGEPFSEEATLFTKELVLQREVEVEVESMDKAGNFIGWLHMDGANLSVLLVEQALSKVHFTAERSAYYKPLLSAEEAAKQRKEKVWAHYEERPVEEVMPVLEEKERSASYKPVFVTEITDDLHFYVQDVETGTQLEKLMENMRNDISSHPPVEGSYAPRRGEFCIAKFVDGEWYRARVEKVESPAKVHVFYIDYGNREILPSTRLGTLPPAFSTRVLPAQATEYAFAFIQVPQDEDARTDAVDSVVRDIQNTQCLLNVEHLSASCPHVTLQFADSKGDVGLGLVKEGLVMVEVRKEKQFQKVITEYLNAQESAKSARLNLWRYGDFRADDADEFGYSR
The test is described as follows: co-IP (anti-MTDH) from reconstituted PyMT;Mtdh-/- tumor cells, western blot. From the text: IP lysates were subjected to western blotting with indicated antibodies.
In particular, genetic deletion of Mtdh in mice impairs the tumor-initiating potential of mammary epithelial cells transformed by diverse oncogenes (PyMT, Wnt, ErbB2) or carcinogen stimuli, and this defect can be readily rescued by reintroducing MTDH into Mtdh-knockout (Mtdh−/−) tumor cells by lentiviral transduction. To test whether interacting with SND1 is important for the tumor-initiating effect of MTDH, the murine form of WT or mutant MTDH (W394A or W401A, corresponding mutations in mouse are W391A, W398A) was stably expressed in mammary tumor cells from PyMT;Mtdh−/− mice. […] To examine how MTDH mutations affect tumor formation in vivo, PyMT;Mtdh−/− tumor cells were orthotopically transplanted into the mammary fat pads of WT recipient mice. […] Furthermore, the size of tumors formed by PyMT;Mtdh−/− tumor cells reconstituted with mutant MTDH was much smaller than that with WT MTDH (FIG. 23D-E).

The target in test [2] is His-SND1 (16-339), SN1/2 domains, wild type (human) (UniProt Q7KZF4). The test is described as follows: GST pull-down on glutathione resin, SDS-PAGE, Coomassie blue; normalised percentage of binding, mean±SEM of three experiments.

B1: GST-MTDH (1-289) (other)
chain: MAARSWQDELAQQAEEGSARLREMLSVGLGFLRTELGLDLGLEPKRYPGWVILVGTGALGLLLLFLLGYGWAAACAGSRKKRRSPPRKREEAAAVPAAAPDDLALLKNLRSEEQKKKNRKKLSEKPKPNGRTVEVAEGEAVRTPQSVTAKQPPEIDKKNEKSKKNKKKSKSDAKAVQNSSRHDGKEVDEGAWETKISHREKRQQRKRDKVLTDSGSLDSTIPGIENTITVTTEQLTTASFPVGSKKNKGDSHLNVQVSNFKSGKGDSTLQVSSGLNENLTVNGGGWNEK
notes: not shown: N-terminal GST tag with TEV site, pQlink vector
In the case of B1, the binding result in test [1] is recorded as “no binding”.

B2: murine MTDH TPM1 (D386R, D390R, W391D) (other, mouse, UniProt Q80WJ7 1-579, looked up)
chain: MAARSWQDELAQQAEEGSARLRELLSVGLGFLRTELGLDLGLEPKRYPGWVILVGTGALGLLLLFLLGYGWAAACAGARKKRRSPPRKREEAAPPTPAPDDLAQLKNLRSEEQKKKNRKKLPEKPKPNGRTVEVPEDEVVRNPRSITAKQAPETDKKNEKSKKNKKKSKSDAKAVQNSSRHDGKEVDEGAWETKISHREKRQQRKRDKVLTDSGSLDSTIPGIENIITVTTEQLTTASFPVGSKKNKGDSHLNVQVSNFKSGKGDSTLQVSSRLNENLTVNGGGWSEKSVKLSSQLSEEKWNSVPPASAGKRKTEPSAWTQDTGDTNANGKDWGRNWSDRSIFSGIGSTAEPVSQSTTSDYQWDVSRNQPYIDDEWSGLNGLSSARPSSRDNAPAEEWGNWVDEDRASLLKSQEPISNDQKVSDDDKEKGEGALPTGKSKKKKKKKKKQGEDNSHTQDTEDLEKDTREELPVNTSKARPKQEKACSLKTMSTSDPAEVLIKNSQPVKTLPPAISAEPSITLSKGDSDNSSSQVPPMLQDTDKPKSNAKQNSVPPSQTKSETNWESPKQIKKKKKARRET
notes: also called TPM1 (murine form)
As for B2, the binding result with murine SND1, wild type was “no binding”.

B3: murine MTDH W398A (printed as W401A in human numbering) (other, mouse, UniProt Q80WJ7 1-579, looked up)
chain: MAARSWQDELAQQAEEGSARLRELLSVGLGFLRTELGLDLGLEPKRYPGWVILVGTGALGLLLLFLLGYGWAAACAGARKKRRSPPRKREEAAPPTPAPDDLAQLKNLRSEEQKKKNRKKLPEKPKPNGRTVEVPEDEVVRNPRSITAKQAPETDKKNEKSKKNKKKSKSDAKAVQNSSRHDGKEVDEGAWETKISHREKRQQRKRDKVLTDSGSLDSTIPGIENIITVTTEQLTTASFPVGSKKNKGDSHLNVQVSNFKSGKGDSTLQVSSRLNENLTVNGGGWSEKSVKLSSQLSEEKWNSVPPASAGKRKTEPSAWTQDTGDTNANGKDWGRNWSDRSIFSGIGSTAEPVSQSTTSDYQWDVSRNQPYIDDEWSGLNGLSSADPSSDWNAPAEEAGNWVDEDRASLLKSQEPISNDQKVSDDDKEKGEGALPTGKSKKKKKKKKKQGEDNSHTQDTEDLEKDTREELPVNTSKARPKQEKACSLKTMSTSDPAEVLIKNSQPVKTLPPAISAEPSITLSKGDSDNSSSQVPPMLQDTDKPKSNAKQNSVPPSQTKSETNWESPKQIKKKKKARRET
notes: also called W401A (murine form)
In the case of B3, the binding result in the test with murine SND1, wild type is “no binding”.

B4: murine MTDH W391A (printed as W394A in human numbering) (other, mouse, UniProt Q80WJ7 1-579, looked up)
chain: MAARSWQDELAQQAEEGSARLRELLSVGLGFLRTELGLDLGLEPKRYPGWVILVGTGALGLLLLFLLGYGWAAACAGARKKRRSPPRKREEAAPPTPAPDDLAQLKNLRSEEQKKKNRKKLPEKPKPNGRTVEVPEDEVVRNPRSITAKQAPETDKKNEKSKKNKKKSKSDAKAVQNSSRHDGKEVDEGAWETKISHREKRQQRKRDKVLTDSGSLDSTIPGIENIITVTTEQLTTASFPVGSKKNKGDSHLNVQVSNFKSGKGDSTLQVSSRLNENLTVNGGGWSEKSVKLSSQLSEEKWNSVPPASAGKRKTEPSAWTQDTGDTNANGKDWGRNWSDRSIFSGIGSTAEPVSQSTTSDYQWDVSRNQPYIDDEWSGLNGLSSADPSSDANAPAEEWGNWVDEDRASLLKSQEPISNDQKVSDDDKEKGEGALPTGKSKKKKKKKKKQGEDNSHTQDTEDLEKDTREELPVNTSKARPKQEKACSLKTMSTSDPAEVLIKNSQPVKTLPPAISAEPSITLSKGDSDNSSSQVPPMLQDTDKPKSNAKQNSVPPSQTKSETNWESPKQIKKKKKARRET
notes: also called W394A (murine form)
For the molecule B4, in the test with murine SND1, wild type, the binding result is “no binding”.

B5: murine MTDH TPM2 (E396R, E397R, W398D) (other, mouse, UniProt Q80WJ7 1-579, looked up)
chain: MAARSWQDELAQQAEEGSARLRELLSVGLGFLRTELGLDLGLEPKRYPGWVILVGTGALGLLLLFLLGYGWAAACAGARKKRRSPPRKREEAAPPTPAPDDLAQLKNLRSEEQKKKNRKKLPEKPKPNGRTVEVPEDEVVRNPRSITAKQAPETDKKNEKSKKNKKKSKSDAKAVQNSSRHDGKEVDEGAWETKISHREKRQQRKRDKVLTDSGSLDSTIPGIENIITVTTEQLTTASFPVGSKKNKGDSHLNVQVSNFKSGKGDSTLQVSSRLNENLTVNGGGWSEKSVKLSSQLSEEKWNSVPPASAGKRKTEPSAWTQDTGDTNANGKDWGRNWSDRSIFSGIGSTAEPVSQSTTSDYQWDVSRNQPYIDDEWSGLNGLSSADPSSDWNAPARRDGNWVDEDRASLLKSQEPISNDQKVSDDDKEKGEGALPTGKSKKKKKKKKKQGEDNSHTQDTEDLEKDTREELPVNTSKARPKQEKACSLKTMSTSDPAEVLIKNSQPVKTLPPAISAEPSITLSKGDSDNSSSQVPPMLQDTDKPKSNAKQNSVPPSQTKSETNWESPKQIKKKKKARRET
notes: also called TPM2 (murine form)
Regarding B5, the binding result with murine SND1, wild type is listed as “no binding”.

B6: GST-MTDH (364-582) W401A (protein, not shown: a dimerising Fc or GST)
chain: YQWDVSRNQPYIDDEWSGLNGLSSADPNSDWNAPAEEAGNWVDEERASLLKSQEPIPDDQKVSDDDKEKGEGALPTGKSKKKKKKKKKQGEDNSTAQDTEELEKEIREDLPVNTSKTRPKQEKAFSLKTISTSDPAEVLVKNSQPIKTLPPATSTEPSVILSKSDSDKSSSQVPPILQETDKSKSNTKQNSVPPSQTKSETSWESPKQIKKKKKARRET
In the case of B6, the % Maximum binding in test [2] came out at 6%.

B7: GST-MTDH (364-582) TPM1 (D389R, D393R, W394D) (other)
chain: YQWDVSRNQPYIDDEWSGLNGLSSARPNSRDNAPAEEWGNWVDEERASLLKSQEPIPDDQKVSDDDKEKGEGALPTGKSKKKKKKKKKQGEDNSTAQDTEELEKEIREDLPVNTSKTRPKQEKAFSLKTISTSDPAEVLVKNSQPIKTLPPATSTEPSVILSKSDSDKSSSQVPPILQETDKSKSNTKQNSVPPSQTKSETSWESPKQIKKKKKARRET
notes: as for B1
As for B7, the binding result in test [1] was “no binding”.

B8: GST-MTDH (364-582) TPM2 (E399R, E400R, W401D) (other)
chain: YQWDVSRNQPYIDDEWSGLNGLSSADPNSDWNAPARRDGNWVDEERASLLKSQEPIPDDQKVSDDDKEKGEGALPTGKSKKKKKKKKKQGEDNSTAQDTEELEKEIREDLPVNTSKTRPKQEKAFSLKTISTSDPAEVLVKNSQPIKTLPPATSTEPSVILSKSDSDKSSSQVPPILQETDKSKSNTKQNSVPPSQTKSETSWESPKQIKKKKKARRET
notes: as for B1
Consider B8, for which, in test [1], the binding result is given as “no binding”.
